Patent publication US20140057332A1, “GLUCO-OLIGOSACCHARIDE OXIDASES FROM ACREMONIUM STRICTUM AND USES THEREOF” (The Governing Council of the University of Toronto, priority 2011, published 2014)

Tests used:
[1] = Enzyme stability at 37° C. (residual activity on maltose); assay type: physicochemical; conditions: pre-incubation at 37° C. for 60 min; 10 mM maltose (FIG. 11)
Method: The enzyme stability was evaluated in triplicate by incubating 0.6 μg of each enzyme preparation in 40 mM Tris-HCl buffer (pH 8.0) for 0, 5, 15, 25, 35, and 60 min at 37° C. Residual enzyme activity was measured at 37° C. for 15 min at pH 8.0 using 10 mM maltose and 0.2 μg of protein.

[2] = Chromogenic H2O2 oxidase assay on xylohexaose; conditions: 1 mM xylohexaose; 37° C., 15 min
Method: (§1) A chromogenic assay was used to measure hydrogen peroxide production (15). Reactions contained 0.1 mM 4aminoantipyrine (4AA), 1 mM phenol, 0.5 U horseradish peroxidase, 40 mM Tris-HCl (pH 8.0), and different substrates were initiated by adding 0.2 μg of enzymes to the 250 μL reaction mixture. The production of H2O2 was coupled to the oxidation of 4aminoantipyrine by horseradish peroxidase and detected at 500 nm. Reactions were incubated at 37° C. for 15 min to measure the specific activity of GOOX on 10 mM of monosaccharide or 1 mM of oligosaccharide.
An additional eight mutations, identified as Y72F, Y72A, E247A, E314A, W351A, N388S, Q353N, Q384A, were created in GOOX-VN to assess the influence of these residues on the substrate selectivity of GOOX-VN. […] The specific activity of each mutant was then measured at 37° C. for 15 min using 10 mM mono-sugars and 1 mM oligosaccharides as performed for Y300A, Y300N, and W351F (Table 11).

[3] = substrate: OC1OC[C@@H](O[C@@H]2OC[C@@H](O)[C@H](O)[C@H]2O)[C@H](O)[C@H]1O; assay: purified protein, by the assay type; conditions: other: 37° C., pH 8.0
Method: as §1
(§2) At least 12 substrate concentrations were included to obtain kinetic parameters for each substrate. Initial rates were obtained by measuring reaction products every 30 s for 15 min at 37° C. and pH 8.0, and kinetic parameters were calculated using the Michaelis-Menten equation (GraphPad Prism5 Software).

[4] = Chromogenic H2O2 oxidase assay / kinetic analysis on NAG
Method: as §1, §2

[5] = Chromogenic H2O2 oxidase assay / kinetic analysis on xylose
Method: as §1, §2

[6] = Chromogenic H2O2 oxidase assay / kinetic analysis on xylobiose
Method: as §1, §2

oxidation of NAG ([4]; after 3 min using 10 mM sugar): detected | oxidation of xylose ([5]; after 3 min using 10 mM sugar): detected
B1: Acremonium strictum gluco-oligosaccharide oxidase GOOX-VN (type strain CBS 346.70, V38 and N388), SEQ ID NO. 2 (Sarocladium strictum; A38V/S388N) (protein)
chain: NSINACLAAADVEFHEEDSEGWEMDGTAFNLRVDYDPVAIAIPRSTEDIAAAVQCGLDAGVQISAKGGGHSYGSYGFGGEDGHLMLELDRMYRVSVDDDNVATIQGGARLGYTALELLDQGNRALTHGTCPAVGIGGHVLGGGYGFATHTHGLTLDWLVGATVVLADASIVHVSKTENADLFWALRGGGGGFAIVSEFEFNTFEAPEIITTYQVTTTWNRKQHVAGLKALQDWAENTMPRELSMRLEINANALNWEGNYFGNAKDLKKVLQPIMKKAGGKSTISKLVETDWYGQINTYLYGADLNITYNYDVHEYFYANSLTAPRLSDEAISAFVDYKFDNSSVRPGRGWWIQWDFHGGKNSALASHSNDETAYAHRDQLWLWQFYDNIYDYENNTSPYPESGFEFMQGFVATIEDTLPEDRKGKYFNYADTTLDKEEAQKLYWRGNLEKLQAIKAKYDPEDVFGNVVSVEPIA
activity following pre-incubation [1]: remained active | Specific Activity of Enzyme Variants [2]: 11.0 µmol/min/mg | Km [3]: 100 ± 0 µM | kcat [3]: 8.813 ± 0.085 s⁻¹ | kcat/Km [3]: 89800 ± 867 M⁻¹ s⁻¹ | Specific Activity of Enzyme Variants ([4]; 10 mM NAG, 37° C., 15 min): 0.2 µmol/min/mg | Specific activity Defined substrate concentration ([4]; 10 mM NAG, 37° C., 15 min): 0.25 µmol/mg/min | Specific activity From Vmax ([4]; substrate NAG): 8.00 µmol/mg/min | Specific Activity of Enzyme Variants ([5]; 10 mM xylose, 37° C., 15 min): 0.4 µmol/min/mg | Specific activity Defined substrate concentration ([5]; 10 mM xylose, 37° C., 15 min): 0.42 µmol/mg/min | Specific activity From Vmax ([5]; substrate xylose): 5.20 µmol/mg/min | Specific Activity of Enzyme Variants ([6]; 1 mM xylobiose, 37° C., 15 min): 7.9 µmol/min/mg | Specific activity Defined substrate concentration ([6]; 1 mM xylobiose, 37° C., 15 min): 7.92 µmol/mg/min | Specific activity From Vmax ([6]; substrate xylobiose): 8.73 µmol/mg/min
